Results from patent publication US12714749B2, “Anti-CK8 antibody and exosome compositions, methods of making, and methods of treating” (PEAK WAY GROUP INC., priority 2022, dated 2026).
Where two headings read alike, the source gives them in different places. Each block holds one molecule with its values, some of them ahead of it.

Experiments:
[1] = system: MCF-7/MX cells; experiment: SRB method, sensitivity of cells to chemotherapy drugs; type: cell-based; details: Homo sapiens, MCF7/MX, read-out: IC50 of chemotherapy drug
Experimental: The SRB method was used to detect the sensitivity of cells to chemotherapy drugs: 800 μg/L mitoxantrone was added in the process of culturing MCF-7/MX cells to maintain drug resistance, and the drug administration stopped two weeks before experiment. 100 μg/mL CK8-1R5 monoclonal antibody and/or 100 μg/mL BCRP inhibitor KS176 (Bai Olette, product No.: M01428) were added into cell culture wells of MCF-7/MX cells, and the culture medium was added for blank control. After 24 hours of culture, digestive cells were inoculated into a 96-well plate, with 2000 cells/well, and 3 double wells. The cells were continued to be cultured for 24 h until complete adherence. After adding different concentrations of chemotherapy drugs (mitoxantrone, topotecan, and daunorubicin) to act for 48 h, the culture was terminated. 50 IA of pre-cooled 50% (mass/volume) trichloroacetic acid was added into each well for immobilizing cells, and the culture plate was transferred into a refrigerator at 4° C. after standing for 1 h; the culture plate was taken, each well was washed with deionized water 5 times to remove TCA, and then dried in air; after complete drying, 100 μl of 0.4% SRB prepared with 1% acetic acid was added into each well and stained for 30 min at room temperature, and then the solution in each well was discarded; the well was washed 5 times using 1% acetic acid to remove unbound dye, and dried in air; 150 μl of 10 mM Tris alkaline solution with pH 10.5 was used for dissolving the sample in each well, the sample was oscillated for 5 min on a flat oscillator, and the absorbance of each well at 490 nm was measured on a BioRad microplate reader. The IC50 value was calculated using Prism software.

[2] = biological target: T1, CK8 protein (Homo sapiens, UniProt P05787); experiment: Indirect ELISA titer of monoclonal antibody; type: binding
T1 construct: made in house; host or cells: E. coli BL21 (DE3), vector pET-28a(+)
T1 sequence (P05787 1-483): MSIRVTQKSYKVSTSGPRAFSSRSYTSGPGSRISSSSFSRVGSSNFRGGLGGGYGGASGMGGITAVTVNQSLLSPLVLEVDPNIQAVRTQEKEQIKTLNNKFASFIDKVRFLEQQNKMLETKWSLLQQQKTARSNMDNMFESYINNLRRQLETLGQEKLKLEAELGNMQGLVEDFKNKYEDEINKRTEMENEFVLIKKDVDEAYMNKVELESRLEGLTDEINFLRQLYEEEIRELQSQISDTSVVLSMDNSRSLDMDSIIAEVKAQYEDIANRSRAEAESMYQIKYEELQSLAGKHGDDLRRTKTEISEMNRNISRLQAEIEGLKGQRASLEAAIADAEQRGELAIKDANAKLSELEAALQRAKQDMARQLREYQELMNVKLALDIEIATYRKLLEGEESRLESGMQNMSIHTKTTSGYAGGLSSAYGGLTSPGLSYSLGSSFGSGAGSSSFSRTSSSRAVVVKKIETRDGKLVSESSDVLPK
Experimental: The titer of monoclonal antibodies was determined using an indirect ELISA method. An ELIASA plate (100 μl/well) was coated with […] of purified recombinant CK8 protein overnight at 4° C., and sealed for 1 h at 10% BSA room temperature. Different concentrations of CK8-1R5 monoclonal antibodies subjected to multiple dilution were added respectively, and incubated at 37° C. for 1 h. After washing 3 times with 0.05% PBST, HRP labeled sheep anti-mouse IgG with a dilution of 1:2000 was added, and the obtained mixture was incubated at 37° C. for 1 h and then washed. A developing agent ABTS was added, and the absorbance (A) value at a wavelength of 405 nm was read on microplate reader. Simultaneously, SP2/0 myeloma cell culture supernatant was used as negative control. The highest dilution ratio of the sample that produces a positive reaction was used as its potency.

[3] = system: MCF7/MX cells; experiment: Tumor growth in mice subcutaneously inoculated with MCF7/MX cells; type: in vivo; details: after 14 days of administration; FIG. 4
Experimental: MCF-7 was selected as a source cell of a tumor exosome, and the culture medium was DMEM with 10% Fetal bovine serum. After being transferred to a cell incubator (37° C. constant temperature, volume fraction, 5% CO2) for 48 h, the supernatant of tumor cells was collected and gradient centrifuged (2000×g, centrifuge, 20 min, 10000×g, centrifuge for 30 min) to remove cell debris, large vesicles were removed using a 0.22 μm filter; the filtrate was centrifuged for 70 min at 100000×g, the supernatant was discarded and then resuspended with 100 μL of DPBS at the bottom of a centrifuge tube, and the exosomes were recovered and stored at […] in refrigerator for future use. […]
After the inguinal areas of mice were subcutaneously inoculated with 5×10^5 MCF7/MX cells for 7 d, tumor bearing mice were randomly divided into 5 groups according to random number table: blank control group, exosome group loaded with erythromycin, exosome group loaded with CK8-1R5 monoclonal antibody combined with erythromycin, CK8-1R5 monoclonal antibody group, and erythromycin group. […] After 14 days of the first administration, the mice were euthanized and the tumor volume=short diameter^2×Long diameter/2 was measured[…].

[4] = biological target: T1, CK8 protein; experiment: Specificity identification by ELISA; type: binding; details: plate coated with CK8 protein, MCF7 cell lysate, BSA, Escherichia coli lysate, NIH3T3 lysate; FIG. 3
Experimental: Specificity identification: each 1 μg of CK8 protein, MCF7 cell lysate, BSA, Escherichia coli lysate and mouse fibroblast NIH3T3 lysate was used to coat the ELISA plate, with PBS wells as blank control. After washing with PBS, 2.5% skimmed milk was added and the plate was sealed at room temperature for 1 h. After washing with PBS, 1:10 diluted cell culture supernatant (monoclonal antibody, primary antibody) was added, the plate was incubated at 37° C. for 1 and washed with 0.05% PBST 3 times, 1:2000 diluted HRP labeled sheep anti-mouse IgG (second antibody) was added, washed after incubation at 37° C. for 1 h, a developing agent ABTS was added, and the absorbance (A) value at 405 nm wavelength was read on the microplate reader.

[5] = biological target: T1, CK8 protein; experiment: Binding ability test (antibody on aminopropyl sensor, spectral phase difference); details: fit from binding and dissociation phase difference; read-out: affinity for CK8 protein
Experimental: Binding ability test: 1 mg of CK8-1R5 monoclonal antibody was taken and dispersed into 1 mL of PBS buffer solution; the prepared antibody dispersion was immobilized on an aminopropyl sensor, the sensor immobilized with the antibody was balanced in PBS buffer and then interact with different concentrations of CK8 protein solutions respectively, and then the spectral phase difference caused by CK8 protein binding to the antibody was recorded. After binding equilibrium, the sensor was placed in PBS buffer, the spectral phase difference caused by protein dissociation from the antibody was recorded, and the antibody's affinity to the protein was fit based on the phase difference.

[6] = MCF-7/MX cells without inhibitor, drug 48 h

Molecule: COc1cccc2c1C(=O)c1c(O)c3c(c(O)c1C2=O)C[C@@](O)(C(C)=O)C[C@@H]3O[C@H]1C[C@H](N)[C@H](O)[C@H](C)O1 [Daunorubicin, daunorubicin]
IC50 ([1]; 48 h): 0.431 ± 0.0102 µM

Molecule: O=C1c2c(O)ccc(O)c2C(=O)c2c(NCCNCCO)ccc(NCCNCCO)c21 [Mitoxantrone, mitoxantrone]
IC50 [1, 6]: 25 ± 1.35 µM

More lines, main results first:

IC50 [1, 6]: 18 ± 1.34 µM
Molecule: CC[C@@]1(O)C(=O)OCc2c1cc1n(c2=O)Cc2cc3c(CN(C)C)c(O)ccc3nc2-1 [Topotecan, topotecan]

absorbance (A) value at 405 nm ([2]; antibody dilution 1:400): 1.679
absorbance (A) value at 405 nm ([2]; antibody dilution 1:800): 1.136
absorbance (A) value at 405 nm ([2]; antibody dilution 1:1600): 0.821
absorbance (A) value at 405 nm ([2]; antibody dilution 1:3200): 0.596
absorbance (A) value at 405 nm ([2]; antibody dilution 1:6400): 0.284
Kd [5]: 0.00633 µM
B1: CK8-1R5: mouse monoclonal antibody (IgG1) specifically binding to CK8; heavy chain variable region SEQ ID NO: 1, light chain SEQ ID NO: 2 (antibody, V domains shown)
VH: EVQLVESGGGLVQPGGSLRLSCAASGFSLSIPYIYWVRQAPGKGLEWVGAQGCGNFYLGWFGVMSRFTISKDNSKNTLYLQMNSLRAEDTAVYYCARFYGMVEIEHVEDVWGQGTLVTVSS
VL: AYQMTQSPSSVSASVGDRVTITCVQPKPHPMCRKWYQQKPGKAPKLLIYMQKDQDNGVPSRFSGSGSGTDFTLTISSLQPEDFATYYCFFPRSRTVCDPKEFGGGTKVEIK
modifications: Glu Val Gln Leu Val Glu Ser Gly Gly Gly Leu Val Gln Pro Gly Gly Ser Leu Arg Leu Ser Cys Ala Ala Ser Gly Phe Ser Leu Ser Ile Pro Tyr Ile Tyr Trp Val Arg Gln Ala Pro Gly Lys Gly Leu Glu Trp Val Gly Ala Gln Gly Cys Gly Asn Phe Tyr Leu Gly Trp Phe Gly Val Met; The amino acid sequence of the present application is artificially synthesized
tumor volume difference versus blank control group [3]: no statistically significant difference (P>0.05)
specificity of binding [4]: only binds to CK8 protein or MCF7 cell lysate expressing the CK8 protein
